Earlier results on one substance are cited in US6100293A, “Tetracyclic triterpene derivatives with immunosuppressant activity” (Merck & Co., Inc., priority 1998, dated 2000).

This data set addresses T1, Kv 1.3 channels (Homo sapiens, UniProt P22001).
T1 construct: expressed in transfected cells; host or cells: CHO cells
The settings on record: reference peptide used at saturating concentration to set the efflux window; read-out: IC50 (blocker of Kv 1.3 channels).

pIC50: −log10 of the molar value.

T1 sequence (P22001 whole entry): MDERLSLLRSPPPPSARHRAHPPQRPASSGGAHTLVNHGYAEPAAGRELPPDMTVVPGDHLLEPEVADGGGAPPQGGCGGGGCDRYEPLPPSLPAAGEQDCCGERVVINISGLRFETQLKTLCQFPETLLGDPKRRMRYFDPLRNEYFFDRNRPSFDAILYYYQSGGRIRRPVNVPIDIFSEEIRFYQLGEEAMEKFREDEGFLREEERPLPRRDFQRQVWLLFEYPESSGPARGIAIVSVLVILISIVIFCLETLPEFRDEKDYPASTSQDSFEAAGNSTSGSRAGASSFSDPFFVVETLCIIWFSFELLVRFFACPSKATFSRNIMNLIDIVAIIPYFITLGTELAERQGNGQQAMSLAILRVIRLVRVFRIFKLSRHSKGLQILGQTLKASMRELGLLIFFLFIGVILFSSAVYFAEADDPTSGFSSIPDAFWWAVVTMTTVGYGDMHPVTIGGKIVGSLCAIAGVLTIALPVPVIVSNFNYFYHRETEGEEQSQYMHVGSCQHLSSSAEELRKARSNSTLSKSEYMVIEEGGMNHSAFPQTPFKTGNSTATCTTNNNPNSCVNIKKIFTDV

As for “margatoxin (TIINVKCTSPKQCLPPCKAQFGQSAGAKCMNGKCKCYPH; UniProt P40755 1-39, looked up)”, the negative-log IC50 (pIC50) is 10.00.

For orientation: pIC50 means the negative decadic logarithm of the IC50, by convention in mol/L.
